IC50 data for 41 molecules are collected here from US20190300590A1 (PROTAGONIST THERAPEUTICS, published 2019).

The chains are these.
T1: IL23R_huFC (human, UniProt Q5VWK5 24-353)
T1 sequence (looked up): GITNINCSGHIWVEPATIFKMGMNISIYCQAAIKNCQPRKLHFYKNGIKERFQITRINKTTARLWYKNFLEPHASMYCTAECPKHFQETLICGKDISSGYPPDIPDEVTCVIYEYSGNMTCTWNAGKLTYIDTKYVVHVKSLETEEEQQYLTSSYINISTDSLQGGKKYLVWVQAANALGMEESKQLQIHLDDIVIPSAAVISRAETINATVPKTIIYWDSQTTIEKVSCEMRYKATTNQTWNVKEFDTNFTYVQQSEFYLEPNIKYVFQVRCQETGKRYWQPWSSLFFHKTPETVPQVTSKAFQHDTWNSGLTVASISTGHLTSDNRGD

T2: IL23R_huFC (human, UniProt Q5VWK5 24-353)
T2 sequence (looked up): T1 sequence (looked up)

B1: Ac-CQTWQCYWR-[Orn]-NG-[AEA]-[(D)-Lys]-NH2 (peptide)
peptide: Ac-CQTWQCYWR[Orn]NG[AEA][dK]-NH2
modifications: disulfide 1-6
SMILES: CC(=O)N[C@H]1CSSC[C@@H](C(=O)N[C@@H](Cc2ccc(O)cc2)C(=O)N[C@@H](Cc2c[nH]c3ccccc23)C(=O)N[C@@H](CCCNC(=N)N)C(=O)N[C@@H](CCCN)C(=O)N[C@@H](CC(N)=O)C(=O)NCC(=O)NCCOCC(=O)N[C@H](CCCCN)C(N)=O)NC(=O)[C@H](CCC(N)=O)NC(=O)[C@H](Cc2c[nH]c3ccccc23)NC(=O)[C@H]([C@@H](C)O)NC(=O)[C@H](CCC(N)=O)NC1=O

*1 amine or outer side, *2 acyl side, *3 side chain or, on linkers, in order; H or OH if unused. Bridges are numbered along the chain shown (N, C = ends). Primed or numbered codes have the meaning given here. [ ]: non-standard residue; d: D form. Phe(4-OMe)(3) = O-methyl-L-tyrosine (4-methoxy-L-phenylalanine), COc1ccc(C[C@H](N[*:1])C(=O)[*:2])cc1; Phe(4-OMe)(5) = O-methyl-L-tyrosine (4-methoxy-Phe), COc1ccc(C[C@H](N[*:1])C(=O)[*:2])cc1; Phe(4-OMe)(4) = O-methyl-L-tyrosine, COc1ccc(C[C@H](N[*:1])C(=O)[*:2])cc1; Phe(3,4-(OMe)2) = COc1ccc(C[C@H](N)C(=O)O)cc1OC; Phe(4-CF3) = N[C@@H](Cc1ccc(C(F)(F)F)cc1)C(=O)O; Phe(4-tBu) = CC(C)(C)c1ccc(C[C@H](N)C(=O)O)cc1; Bip = N[C@@H](Cc1ccc(-c2ccccc2)cc1)C(=O)O; 2Nal = N[C@@H](Cc1ccc2ccccc2c1)C(=O)O; Ala(cPent) = N[C@@H](CC1CCCC1)C(=O)O; AEF = NCCOc1ccc(C[C@H](N)C(=O)O)cc1; Gly(octyl) = CCCCCCCC[C@H](N)C(=O)O; Cav = NC(N)=NOCC[C@H](N)C(=O)O; Pen = CC(C)(S)[C@H](N)C(=O)O; hLeu = CC(C)CC[C@H](N)C(=O)O; αMeK = C[C@](N)(CCCCN)C(=O)O; Orn = NCCC[C@H](N)C(=O)O; Abu = CC[C@H](N)C(=O)O; Dap = NC[C@H](N)C(=O)O; AEA = NCCOCC(=O)O

One assay concerns the target T1, IL23R_huFC. Nature of the assay: human ELISA vs IL-23.
On to Ac-[Abu]QTWQC[AEF]W[αMeK]K(Ac)[Dap]G-NH2 (thioether 1-6) [Ac-Cyclo-[[Abu]-QTWQC]-[Phe[4-(2-aminoethoxy)]]-W-[α-MeLys]-[Lys(Ac)]-[Dap]-G-NH2], for which the IC50 was > 1000 nM. Still for that read-out and setting: in the case of Ac-[Abu]QTWQ[dC]YW[hLeu]ENG-NH2 (thioether 1-6) [Ac-Cyclo-[Abu]-QTWQ-(D)Cys]]-YW-[hLeu]-ENG-NH2] it was > 1000 nM; in that of Ac-[Abu]QTWQC[Phe(4-OMe)(3)][Phe(4-tBu)][αMeK]ENG-NH2 (thioether 1-6) [Ac-Cyclo-[[Abu]-QTWQC]-[Phe(4-OMe)]-[Phe(4-tBu)]-[α-MeLys]-ENG-NH2], > 1000 nM; in that of Ac-[Abu]QTWQC[Phe(4-OMe)(3)][Gly(octyl)][αMeK]K(Ac)NG-NH2 (thioether 1-6) [Ac-Cyclo-[[Abu]-QTWQC]-[Phe(4-OMe)]-[Octgly]-[α-MeLys]-[Lys(Ac)]-NG-NH2], ~10000 nM. As for Ac-[Abu]QT[Phe(3,4-(OMe)2)]QC[AEF][2Nal][αMeK]ENG-NH2 (thioether 1-6) [Ac-Cyclo-[[Abu]-QT-[Phe(3,4-OMe)]-QC]-[Phe[4-(2-aminoethoxy)]]-[2-Nal]-[α-MeLys]-ENG-NH2], the IC50 was ~3000 nM. The same measure, in the same setting: for Ac-[Abu]QTYQC[Phe(4-OMe)(5)][2Nal][αMeK]K(Ac)NG-NH2 (thioether 1-6) [Ac-Cyclo-[[Abu]-QTYQC]-[Phe(4-OMe)]-[2-Nal]-[α-MeLys]-[Lys(Ac)]-NG-NH2] the value was ~10000 nM; for Ac-[Abu]QTWQC[Gly(octyl)][2Nal][αMeK]K(Ac)NG-NH2 (thioether 1-6) [Ac-Cyclo-[[Abu]-QTWQC]-[Octgly]-[2-Nal]-[α-MeLys]-[Lys(Ac)]-NG-NH2], ~10000 nM. On the same count and under the same terms, for Ac-[Abu]QT[Phe(4-CF3)]QC[AEF][2Nal][αMeK]ENG-NH2 (thioether 1-6) [Ac-Cyclo-[[Abu]-QT-[Phe(4-CF3)]-QC]-[Phe[4-(2-aminoethoxy)]]-[2-Nal]-[α-MeLys]-ENG-NH2] the value was ~3000 nM; for Ac-[Abu]QT[Bip]QC[Phe(4-OMe)(4)][2Nal][αMeK]K(Ac)NG-NH2 (thioether 1-6) [Ac-Cyclo-[[Abu]-QT-[Bip]-QC]-[Phe(4-OMe)]-[2-Nal][α-MeLys]-[Lys(Ac)]-NG-NH2], ~10000 nM. Same read-out and setting: for Ac-[Abu]QTWQ[Pen]YW[hLeu]ENG-NH2 (thioether 1-6) [Ac-Cyclo-[[Abu]-QTWQ-[Pen]]-YW-[hLeu]-ENG-NH2] the value was > 1000 nM.

The target in a further assay is T2, IL23R_huFC. Nature of the assay: IL23-IL23R competitive ELISA.
As to CADWVCYWHTFGAK (Ac-; [β-Ala]; [(D)Lys]; disulfide) [Ac-CADWVCYWHTFG-[β-Ala]-[(D)Lys]-OH], the IC50 was < 500 nM. Same read-out and setting: for Ac-CADWVCYWHTFGP[dK]-OH (disulfide 1-6 (inferred)) [Ac-CADWVCYWHTFGP-[(D)Lys]-OH] the value was < 500 nM; for Ac-DTPRCRTWECYWHTFG-NH2 (disulfide 5-10 (inferred)) [Ac-DTPRCRTWECYWHTFG-NH2], < 500 nM.

With Ac-CRTWECYWHEYG-NH2 (disulfide 1-6 (inferred)) [Ac-CRTWECYWHEYG-NH2], the IC50 is < 500 nM.

With Ac-CRTWECYWHEFG-NH2 (disulfide 1-6 (inferred)) [Ac-CRTWECYWHEFG-NH2], the IC50 was < 500 nM. Turning to Ac-CTTWECYWHQFG-NH2 (disulfide 1-6 (inferred)) [Ac-CTTWECYWHQFG-NH2], the IC50 was < 500 nM. The same measure, in the same setting: for Ac-CTTWECYWHEFG-NH2 (disulfide 1-6 (inferred)) [Ac-CTTWECYWHEFG-NH2] the value was < 500 nM; for Ac-CRTWQCYWHEYG-NH2 (disulfide 1-6 (inferred)) [Ac-CRTWQCYWHEYG-NH2], < 500 nM; for Ac-CATWQCYWHEYG-NH2 (disulfide 1-6 (inferred)) [Ac-CATWQCYWHEYG-NH2], < 500 nM. Still for that read-out and setting: for Ac-CTTWECYWHEYG-NH2 (disulfide 1-6 (inferred)) [Ac-CTTWECYWHEYG-NH2] the value was < 500 nM; for Ac-CQTWQCYW[Cav]ENG-NH2 (disulfide 1-6 (inferred)) [Ac-CQTWQCYW-[Cav]-ENG-NH2], < 500 nM; for Ac-CQTWQCYW[Ala(cPent)]ENG-NH2 (disulfide 1-6 (inferred)) [Ac-CQTWQCYW-[Cpa]-ENG-NH2], < 500 nM. The same measure, in the same setting: for Ac-CRTWECYWHEQS-NH2 (disulfide 1-6 (inferred)) [Ac-CRTWECYWHEQS-NH2] the value was < 500 nM; for Ac-CADWVCYWHTFGA[dK]-OH (disulfide 1-6 (inferred)) [Ac-CADWVCYWHTFGA-[(D)Lys]-OH], < 500 nM. On to Ac-CADWVCYWHRHADRVK-NH2 (disulfide 1-6 (inferred)) [Ac-CADWVCYWHRHADRVK-NH2], for which the IC50 is < 500 nM. Same read-out and setting: for Ac-CQTWECYWHLYG-NH2 (disulfide 1-6 (inferred)) [Ac-CQTWECYWHLYG-NH2] the value was < 500 nM. Still for that read-out and setting: in the case of H-CSNWVCYWHTYG-NH2 (disulfide 1-6 (inferred)) [Hy-CSNWVCYWHTYG-NH2] it was < 500 nM; in that of Ac-CADWVCYWHTFGAA[dK]-OH (disulfide 1-6 (inferred)) [Ac-CADWVCYWHTFGAA[(D)Lys]-OH], < 500 nM. As to Ac-CEDWKCYWHKYG-NH2 (disulfide 1-6 (inferred)) [Ac-CEDWKCYWHKYG-NH2], the IC50 is < 500 nM. With Ac-CADWVCYWHTFGER-NH2 (disulfide 1-6 (inferred)) [Ac-CADWVCYWHTFGER-NH2], the IC50 was < 500 nM. The same measure, in the same setting: in the case of Ac-CADWVCYWHTHGER-NH2 (disulfide 1-6 (inferred)) [Ac-CADWVCYWHTHGER-NH2] it was < 500 nM; in that of Ac-CKTWTCYWHEFG-NH2 (disulfide 1-6 (inferred)) [Ac-CKTWTCYWHEFG-NH2], < 500 nM. The same measure, in the same setting: for CQTWQCYWRXNGXK (Ac-; [Dapa]; [AEA]; [(D)-Lys]; -NH2; disulfide) [Ac-CQTWQCYWR-[Dapa]-NG-[AEA]-[(D)-Lys]-NH2] the value was < 500 nM; for B1, < 500 nM. Turning to H-CRTWQCYWRKFG-NH2 (disulfide 1-6 (inferred)) [Hy-CRTWQCYWRKFG-NH2], the IC50 is < 500 nM. Still for that read-out and setting: in the case of Ac-CADWVCYWHTFG-OH (disulfide 1-6 (inferred)) [Ac-CADWVCYWHTFG-OH] it was < 500 nM. On to H-CRDWQCYWHKFG-NH2 (disulfide 1-6 (inferred)) [Hy-CRDWQCYWHKFG-NH2], for which the IC50 was < 500 nM. Consider Ac-CQTWQCYWRENG-NH2 (disulfide 1-6 (inferred)) [Ac-CQTWQCYWRENG-NH2], for which the IC50 was < 500 nM.

In the case of Ac-CQTWQCYWLENG-NH2 (disulfide 1-6 (inferred)) [Ac-CQTWQCYWLENG-NH2], the IC50 is < 500 nM. With Ac-CQTWQCYW[hLeu]ENG-NH2 (disulfide 1-6 (inferred)) [Ac-CQTWQCYW[-hLeu]-ENG-NH2], the IC50 is < 500 nM. The same measure, in the same setting: in the case of Ac-CQTWQCYWRK(Ac)NG-NH2 (disulfide 1-6 (inferred)) [Ac-CQTWQCYWR-[K-Ac]-NG-NH2] it was < 500 nM.
